Series [1] deals with the molecule itself. Description: blue native PAGE (legend of FIG. 4), self-association.
Series [2] concerns the molecule itself. Kind of series: blue native PAGE (BN-PAGE), self-association.

B1: bis-ANS treated GRP94 (porcine pancreas GRP94 preincubated with bis-ANS) (other, UniProt Q29092 22-804, looked up)
chain: EDEVDVDGTVEEDLGKSREGSRTDDEVVQREEEAIQLDGLNASQIRELREKSEKFAFQAEVNRMMKLIINSLYKNKEIFLRELISNASDALDKIRLISLTDENALAGNEELTVKIKCDKEKNLLHVTDTGVGMTREELVKNLGTIAKSGTSEFLNKMAEAQEDGQSTSELIGQFGVGFYSAFLVADKVIVTSKHNNDTQHIWESDSNEFSVIADPRGNTLGRGTTITLVLKEEASDYLELDTIKNLVKKYSQFINFPIYVWSSKTETVEEPMEEEEAAKEEKEESDDEAAVEEEEEEKKPKTKKVEKTVWDWELMNDIKPIWQRPSKEVEDDEYKAFYKSFSKESDDPMAYIHFTAEGEVTFKSILFVPTSAPRGLFDEYGSKKSDYIKLYVRRVFITDDFHDMMPKYLNFVKGVVDSDDLPLNVSRETLQQHKLLKVIRKKLVRKTLDMIKKIADEKYNDTFWKEFGTNIKLGVIEDHSNRTRLAKLLRFQSSHHPSDITSLDQYVERMKEKQDKIYFMAGSSRKEAESSPFVERLLKKGYEVIYLTEPVDEYCIQALPEFDGKRFQNVAKEGVKFDESEKSKENREAVEKEFEPLLNWMKDKALKDKIEKAVVSQRLTESPCALVASQYGWSGNMERIMKAQAYQTGKDISTNYYASQKKTFEINPRHPLIRDMLRRVKEDEDDKTVSDLAVVLFETATLRSGYLLPDTKAYGDRIERMLRLSLNIDPDAKVEEEPEEEPEETTEDTTEDTEQDDDEEMDAGADEEEQETSETSTAEKDEL
In the case of B1, the binding result in series [1] is on record as “binds”.

B2: heat shocked GRP94 (porcine pancreas GRP94 incubated 15 minutes at 50 C) (other, UniProt Q29092 22-804, looked up)
chain: B1 chain
notes: also called hs GRP94; heat-treated GRP94
Turning to B2, in series [2], the binding result was “binds”.

B3: GRP94 (glucose regulated protein of 94 kDa), native, purified from porcine pancreas (other, UniProt Q29092 22-804, looked up)
chain: B1 chain
notes: also called native GRP94; gp96
In the case of B3, the binding result in series [2] is given as “binds”.

The values above are taken from patent US20030215874A1 (published 2003).
